Assay results published in the DeepSol protein solubility set.

Assay: soluble on expression in E. coli; label from the status in PepcDB or PDB records

Soluble on expression in E. coli, not soluble:
MGSDKIHHHHHHMTQFWRDPTLPFVESRRATDSRACYRPHSHPTLSIGVVDRGQSQFQCQRRREWLTPGCLVSVPAGVVHDCNPLPDQPWSYQMLYLEPAWVSEVLDEASAETDAAPTLPSTVFIARDVAPYQAFCRLNALLFSSAPRADKEAGLIEFLGSRLWCHGDAMAVHWPNSSDLDDLQRHLLECLERPPSLEVLARDHGLSRYQVIRLFRRETGLTPHAWLLDRRIQQARRRLCQGVELAELAQELGFADQGHFQRAFKARVAATPGRYRST, MGSDKIHHHHHHMTQLSNKTKDSCNWDSIVIGSGLGGLVTASQLASKGAKVLVLEQYKIPGGSGGSFKRKGFTFDVGASMIFGFGNKGYTNLLTRALKDVGQKCETIPDPTQLAYHLPNQLEISVDRDYQKFITKLINLFPHEEKGIKHFYETCWDVFNCLDSMPLLSIEDPAYLMKVFFKSPLSCLGLARWLPVNAGDVAMRYIKDPDLLRFIDIECFCWSVMPANLTPMINAGMVFSDRHYGGINYPKGGVGVIAEKLVKGIKNLGGEIRYKSRVKKIIFEKGNAIGVSLENDEEIFSKTVVSNATRWDTFGGQGIKSPLVATENKPTSEKKWENRYIPSPSFLSLHLGVNVDSIPANTHCHHLLLDKWEEMDKEQGVTFVSIPTLLDPTLAPSGSHIVHAFTPSSIDNWDGLSNKEYLAKKKEDGDKLISKLERLFPNLSQNILHKEIGSPRTHKRFLARNKGSYGPIPSMRLPGLLPMPFNTTKINGLYCVGDSCFPGQGLNAVAFSGYACAHKIGTKLGMNKWELPE, MGSDKIHHHHHHMTQSSLDPATVELTADQQQAAEAFSSWLDDANHGNPFVLSGFAGSGKTFLSMRLLRQVEDAGLCWTVVAPTHKAVGVLRQALDLEGLRPTWYPSTIHRLLRLKLKRQGDLELCESTEQTAQSLEQLGLVLIDESSMIDSTLLGLALQCAHPFRTRLVFVGDPAQLPPIGEAQSPVFSMHRACTATLQQVVRHQGPVLRLASRLRDGSLPCQSPPCFPLIEDELGRVGCMDQNNWLKRAQAALQSAAIQDNPDAARILCYTNRSLEQLVPHARRAIHGDMADQLPVLPGEVLIARKAVMAPASRSGAETGEEPDMVLGSNREVVVRDVTPERCDLAEFGLEGQSDWSVPVVDTLTAKVRAGELDLELRLQPPVGSEGRRLLDTTLQRLRVEAKAAGKSDGRSLWRRFFLLRDAFASLGPAAVLTVHRSQGSSFGEVFVAGDVFWPQDLSLRRQLVYVAVSRARTGVWLVGKTGAAAQSRWLDQLRSQSSDR, MGSDKIHHHHHHMTQYIYLHGFASSPQSAKAQDIRQRFAQIHTQLTIPDLNAGEFSQLTITRQIQQIAATFPDDSVPITLIGSSLGGLTAAHLGQRYLQVQRLVLLAPAFGFLSHWLPKMGEGAVQSWQQNGYYPVYHYGEGTSLPLSYNFVTDAAQYQEDHIQRPIPTLILHGKHDEVIPITASRDFAHSRPWVELIELDSNHALGNVMEEIWQAISLFCQLPESGKI, MGSDKIHHHHHHMTRSTIGGKRFEPIPARFSSIGAGLMNIKQLEVLRTLLSTGSTIATAKAMGLSQSGISRLLAQLEADLSLTLFARDKGRLIPTPEAALLARDAENVLLAVDRMSGHAEDLRNGAAGPEIVRIGLPSSMWENFAPAMLIDYVRDFPGVRIETFFETTTAINKLVGERVIDLGFLRMEGEIGPGIDVERVATGKSVCVVREDHPLADLQEITVKDLRNIPLILIGRQRPNRMALDQVFKKAGVKPMVKIETHTNSSACAYVAHGLGVTIISSFYANLYRHLPVVARPFVPQATQEFGLARASGAPLSIAAQALSNALKREIQLSQKID, MGSDKIHHHHHHMTRSVKRVAAIHDLSGFGRASLTAIIPIMSYMGIQVCPMPTAVLSTHTTDFHEYSFVDLTDSMQDFMNHWKKINLEFDAIYTGFLGSPRQVKIISDFVKEFSSDSTLVLIDPVMGDEGELYQTMNSEIVRSMRELIKSADIITPNFTEAAYLLDKDYNLELNEETIKEWILELANMGPDIVIMTSVPENKDKSTISVIAYEKKLNKFWKITSEYIPVSYPGTGDSFASAILGRILKGDNLPQAVGRGMQFITSAIKESYGFDYPTREGILIEKSLEVLNLPFMNGNYKLI, MGSDKIHHHHHHMTSDVLVIAPFRRPTFRTAISHLYPVTEPWDSPPLITCGAIQEAGLEVDYVALQNIFNGYDPERDGRDLNEILGVLHPKVVIFSSDHFIPSRSTASIYGISLVSKIFKSRERPPLIGVCGRLATVAAQRLFAEVPEVDFAVIGESDGVIGEVVADLLAADMEETSRRHGYVHTRTAPARDIAYMGDVNDVALPAFALALPSIAQYRSRFGLEENPLPFSLRTSFGCKFKCRFCAGVPHWLDYRKKSPDRVQAELDAFLNQLGDQARISFLEDEIFTRDPEHVAAITALLKERNIYLDGLYTHSTLLTPEIAADLCTVADRVFTGLDNADDQILRKMGKGQLLDTVLDAVEKAQAASLKVHLEWIIGTPEETLDTLVTSLSTIFNLLSTHAVESINTYVYCPHPGTDYTVNAKKYRMRVLDTFDGIQESGGYPAFDTANLTRNQIYTAYLMSQLVIAEVTAARQHSSIPRAVVPASRSELLRLFGMIGEGQVAFDFDEAPVGRVSYPEGTSRA, MGSDKIHHHHHHMTSFVLSSKNAFDYLILQGLCTQNEKSLSKIELVPAKNFNLLISLPDNRKLLIKQEPHKREGKTSGEFLKEWRVHNFLQTFPELSDIRSYFSEAVHFDPENSIFVFNYLTNYRDLMDFYVERNLKLFPIKIAMLVGTTLASIHRLSIDRQEYQEFFLNKNIFGQGIPNLNLGMDRVSPAVFGKLPTDGLKFLSLYQRYDSLGQAIAELNNALIPCCLTHNDLKLNNILLSLNWEEAAFNESSSDESIIRLIDWERGAWGDPASDLGTLIASYLQLWLHSMITSKTMAIQESLRLATTPLHLLQPSIRELVIAYLSAFPEIIELHPDFLQRVMQFCGFALIKSIQAKLQHEKTFGNKGICILQVAKSLLCRPEASIPTIFGVDASDLSPINLSPASK, MGSDKIHHHHHHMTSKLTEVSTPPQAAMPKSTLANEQENKVFIIGLPRTGTTSVSVALLEQGLTVAHQAFTKQAFMLADAVSDAPCFSDYQQLDKLFPNAKFVYLDRPLDKWLPSMQMLLGRMLVHLDKDKGRFHPVMKRSFNHCFDIWQVEDVFDEAHLTACYQRHQQQVMSYFAGRDDFISIDISVTGSLAKLLQFIDLAKPDTAEFRQLQYPQLQSQPQNFPQLNFPQLNFPQLNTGRNVASWDEYKHPNKISANASGPDKRKFFDYRL, MGSDKIHHHHHHMTSTPHSPSEMFASIPGIFGFYPEESIVVLTLMHTKESCYQLGPVMRLDLKDLRYLSDIGDTLSAIEPDLVFGLIISGQKPEAIEDLRGLIEFVADCEIVPFDACWYTSAIESGGKYDAIWLNEAMTEAALEYQSWRKGRIPLIANTGITGEMIHAGHLPELSRKDIEKHYAQAEESEQWDEYLITERYAELFDDPSTSFRSAQECIDAFSQAVELMRTEKLITDAALTVAAFLKNKMSRDIIIECCVHNANTVKEALCYVSRHTKGFVRANALALYALCIVDSPWGNHITCVLQAAHNTLPFHHLTALVAEAYYRGLSGSIVDLVVSGSQEAQKHFGEATNVKSAV, MGSDKIHHHHHHMTTDSSNNRTISSKSTLSSKSIINVGPFTPHIEFIGQQQTPVIIIDDFGADLSQLIDIAIDDSQFNQDQGSYYPGQRAPLPKQYVIDVINAVYQLIYDTYKVPHSLRLKPQQCVFSVIDKPAQRLLPLQCMPHFDTPDPHYFAILHYLNNGDHGDTGFFRHNTTQYEQISPHNIDHYFNQAQPVVDAQQTLMPDYVVDSNDHYTLYHQVHYRPNRLVIYPGNLLHSTLVNPVTDIDSSPKTGRLTANIFINFK, MGSDKIHHHHHHMTTILHAMLGKGLGGLEQVFLDYQPILEAWAARRGGRCVGVVRKGGKMAVAQANRTPPLSAMPALTDWDPITVGAARALVKTYRPALIFSHGQRPARVFDKAAPADVVRAVCLHKPSFDVTPGTHYVCVGQHLAALAIERGAPADHVWLVPNAVKPPGVEAQPFAEAGRPIRIVAAGRLHPKKGFDVLIHAVGKLRAWDYEVTCEIAGEGDERGALEGLIRDLDLEASVTLKGWTGDVAGFLATGDLFAFPSHQEGFPLTLLEAMAVGLPVVASEIDGPLEILTDGRDGRLVPDNDPDRLAEALAELISDRETAVRLGAAARQQVLTEYSPQELARRLEAALDGMTSRA, MGSDKIHHHHHHMTTLGIDHPLVCVRDLAAKRATYQSLGFLMKPPGMHPWGTSTALVIFRNQLLELVSIEDESLLDGYAAGSFRFGRHVEAWLAEREGVCLSALNSMDAEADEAAVLARGGSCAGTVEFGRDVVRDDGTPDRTKTTLKIFPHAGLPRLSMFACQQHRRDLIEFPDWMDHPNGAHGFASATILAAPSDQGRVRDWLSVLHGADAVRDTDWGFEVATTNGRWRVVSRATAPALLGKLPDGLASDGAPSVISLDIRCHALSQLRPFVEAGEFVCQDVNGALVLTEVARLGGILLSFHEIPKV, MGSDKIHHHHHHMTTLKARLRQGQAITMIGNSLPDTYAAEMVASAGFDAVMIDLQHSAIGLHEVNDLARAVRAQGCAPVVRVAANDPAAITKVLDGGVDAVVAPMINSAEACRQFISACYYAPLGDRSFGPYLGQVIQRQSIQDYYAQTRDRLLPIAMIENEEGVRQAEQIMRTEGLGAIYVGASDLSIAMGMDCVPDYRNARLLDCIKGLIDLGERCGIPVGAFAPTLEDSLMLQSLGSRILWVGSDQGFIKAGCAARAQQYHAESSPRR, MGSDKIHHHHHHMTTLPYFQPAASPASAGEGSASLSPVIALKDLVARLDREQRKAQELLASLGFALRSFTNLGQFLELIPLIASRVTDTEGSLLLTFRPDGRFWQAQLHCTDPRLAETLNRIPASLPVGTAPSGSPTEAIAEIDRQVQRCLGRNAQLFATAVLVRNQARGRLYVFSLDGQYSWNESRQKLVRLVADQTAVAIENDALTTELRQKERLDRELEIGAEIQLQLLPSQCPAIEGLEIAAACRTASRVGGDYYDFIPTRTHSDEQGRLQPDAGSPWAIAIGDIMGKGVPAGLIMTMLRGMLRAEVLNRHRPSRVLAHLNQVIYADLEHSNRFATLFYSEYDPSSRLLTFSNAAHNPPLLWQQATGTLKRLDTFGMMIGLEADNAYAEQHVQLQPGDVVLYYTDGLTDAADPRGNRFDEENVAIAFREACRRRLSAEALLADLFNRVQRFIGPDRHNEDDMTLVVLRAV, MGSDKIHHHHHHMTTSKRVAIIGAGPSGLAQLRAFQSAAAKGEEIPEIVCFEKQDNWGGLWNYTWRTGLDENGEPVHCSMYRYLWSNGPKEGLEFADYSFEEHFGKQIASYPPRAVLFDYIEGRVLKANVRDWIRFSTAVRWIDYNDETGLFKVTVHDHTNDRVYSEEFDHVICASGHFSTPNVPHYEGFETFNGRLVHAHDFRDAREFAGKDILVVGSSYSAEDIGSQCWKYGAKSITSCYRSAPMGFKWPDNWEEKPALVKVDKNTVFFSDGTSREVDAIILCTGYKHFFNFLPDDLRLKTANRLATADLYKGVVYVHNPKMFYLGMQDQWFTFNMFDAQAWWVRDAIMGKIDLSNVTKEQMLADVTERETREEASDDVKYAIRYQADYVKELVAETDYPSFDIDGACEAFFQWKKHKGEDIMAFRNNSYTSVITGTLAPVHHTPWKDALDDSMEAYLRN, MGSDKIHHHHHHMTVDTRPAVGNPGYATSSPELERWLARHISEGFGAESLVLSMLRSGYDAAFARSAVATAMGHRRPDASATQPAPRLARREVPVLFSLQSPSIRLYQHLLSDAECDALVELARGRLARSPVINPDTGDENLIDARTSMGAMFQVGEHTLIQRIEDRIAAVLGVPVDHGEGLQILNYKPGGEYQPHFDFFNPKRPGEARQLRVGGQRTATLVIYLNTPQAGGATAFPRIGLEVAPVKGNAVYFSYLQPDGKLDERTLHAGLPVQSGEKWIATKWLREHPYRAGA
